Results on 19 sequences are retold here after the DeepSol protein solubility set.

The data set is described as follows: soluble on expression in E. coli; label from the status in PepcDB or PDB records.
Regarding “MSETVKLDVGGTIFKTSRSTLTKFNGFFKTMLESDIGLKIDESGSIFIDRSPKNFDLILNFMRDGDVVLPNCELKLKELLVEAQFYLLDGLIELCNSKIELVEAPKIKLRFIESDEQFLQILAVQQKPMLIIEFCMVGNDMSIPYNFNLYEFMEKYSHQFDIYFRKFFVHYPHKIVNSERLSEDEPSRKWKARIKWKPTENGYYSQFPHNLRINRGGRIIRDATFLERLEKMIGEFDEYLKKQRNR”, the “soluble on expression in E. coli” value is on record as “not soluble”.

Regarding “MGSDKIHHHHHHMPAFPLNAWYAAAWDADIKHALFPRTICGKHVVMYRKADGTVAALEDACWHRLVPLSKGRLEGDTVVCGYHGLKFNPQGRCTYMPSQETINPSACVRSYPVVERHRFVWLWMGDPVLADPALVPDMHWNDDPAWAGDGKTIYAKCDWRLVVDNLMDLTHETYVHGSSIGNEAVAEAPFDVTHGDRTVTVTRWMKGIEPPPFWAAQLGKPGLVDRWQIIRFEAPGTVTIDVGVAPAGTRAPEGDRSQGVNGFVLNTMTPETDTTCHYFWAFVRNYRLSEQRLTTEIREGVSGIFREDEIILEAQQRAMLENPDRVFYNLNIDAGAMWSRKLIDRMVAQESAPKLQAAE”, the “soluble on expression in E. coli” value is on record as “not soluble”. In the case of “ATHEVHMLNKGESGAMVFEPAFVRAEPGDVINFVPTDKSHNVEAIKEILPEGVESFKSKINESYTLTVTEPGLYGVKCTPHFGMGMVGLVQVGDAPENLDAAKTAKMPKKARERMDAELAQVN” it was “soluble”. With “MGSDKIHHHHHHMERLCEQVRKVRRWLIDQPFDGILLSEQKNIAWLTGARAYVNLATERSIVFFLITESETVMYCSNIEKERLLAEEIGDTVGEIHVFPWYDPLLAESITQEQSKIGKVVLDREVESAFKAVRSALSPSQVAGYRQLGKLSAAAVEETALGLQRGETELEIAGRLANAAIKRGIEPVVNLVAVDDRVSAYRHPLPTDKRLDRYVMIVLSGRRNGQYISLTRLVHFGVIPIDLKKKHAAVCTIDSRLMHHTRVGQSMGDLFKEMKAAYATVGYLHEWKNHHQGGLTGYVGRERLLQPDAQELIQANEVYAWNPSITGTKSEDTILVTESGPEILTLGKKFPLMTVTVAGCTYERPDILGRNDG”, the “soluble on expression in E. coli” value is “not soluble”.

Take “MSLTADTKRPLTLRDVSEASGVSEMTVSRVLRNRGDVSDATRARVLAAAKELGYVPNKIAGALASNRVNLVAVIIPSLSNMVFPEVLTGINQVLEDTELQPVVGVTDYLPEKEEKVLYEMLSWRPSGVIIAGLEHSEAARAMLDAAGIPVVEIMDSDGKPVDAMVGISHRRAGREMAQAILKAGYRRIGFMGTKMPLDYRARKRFEGFTEVLGKNGVEIEDREFYSGGSALAKGREMTQAMLERSPDLDFLYYSNDMIAAGGLLYLLEQGIDIPGQIGLAGFNNVELLQGLPRKLATMDACRLEIGRKAAEIIAKRLEDPEAEIETRITLEPKISYGDTLKREGHHHHHH”: the “soluble on expression in E. coli” value is reported as “soluble”. Regarding “SVTDNNGAVKFPQLCKFCDVRFSTCDNQKSCMSNCSITSICEKPQEVCVAVWRKNDENITLETVCHDPKLPYHDFILEDAASPKCIMKEKKKPGETFFMCSCSSDECNDNIIFSEEYNTSNPD”, the “soluble on expression in E. coli” value is listed as “soluble”. In the case of “MKRFNVLKYIRTTKANIQTIAMPLTTKPLSLKINAALFDVDGTIIISQPAIAAFWRDFGKDKPYFDAEHVIHISHGWRTYDAIAKFAPDFADEEYVNKLEGEIPEKYGEHSIEVPGAVKLCNALNALPKEKWAVATSGTRDMAKKWFDILKIKRPEYFITANDVKQGKPHPEPYLKGRNGLGFPINEQDPSKSKVVVFEDAPAGIAAGKAAGCKIVGIATTFDLDFLKEKGCDIIVKNHESIRVGEYNAETDEVELIFDDYLYAKDDLLKW”, the “soluble on expression in E. coli” value is “soluble”. The result for “SQLTHINAAGEAHMVDVSAKAETVREARAEAFVTMRSETLAMIIDGRHHKGDVFATARIAGIQAAKRTWDLIPLCHPLMLSKVEVNLQAEPEHNRVRIETLCRLTGKTGVEMEALTAASVAALTIYDMCKAVQKDMVIGPVRLLAKSGGKSGDFKVEADD” reads “not soluble”; that for “MKTKDQIDNIVKETYRHIDFSGVILVKEKKGIVYEEVFGYANRNECINNTLQTRFGIASGCKIFTAIGICQLVENGVITFQTKLKECLSVNFPNFNEDITIHHLLTHSSGIPDYFDESIMDNFEDLWKQTPMYLLKSLKDFLPLFQNRDMMYAPGSKFHYNNAGFIILGLIIEEQTGLTFTEYIEKNIFNPIGMNHSGYFSLDRLPRQTALGYIKDEISQTWRTNAYSIPIKGGSDGGAFITASDMLKFWEALFNYEIISQEYTKILLTPHIQVNNNQSYGYGIWIETRENKIFKYHVMGYDPGVSFRSAVYPDLGITLVIPSNKGAGAEKLMIEIEGSF”, “not soluble”.

Consider “DVGSAIDAAHQAFLRYQQCPLKTRSAIISALRETLAPELATLAEESATETGMGNKEDKYLKNKAALENTPGIEDLTTSALTGDGGMVLFEYSPFGVIGAVAPSTNPTETIINNSISMLAAGNSVYFSPHPGAKKVSLKLIARIEEIAYRCSGIRNLVVTVAEPTFEATQQMMSHPLIAVLAITGGPGIVAMGMKSGKKVIGAGAGNPPCIVDETADLVKAAEDIISG”, for which the “soluble on expression in E. coli” value is listed as “not soluble”. The result for “MVAATPVQFVLPPLPEAPTAAAARLDGLSLADSGGGAGVRTVRLREALYGAGPYESADASMAELAAQIASLDRDKARSALAAVWQATVLGRPNRAANQVALAAAGGVLLLVDVAVQRLAGVRLEGGARSCSREDEEEAVMALLVLENLSCNVSLHRDMVLGAPGPHLLQMLVALAKDNTAAAAVRVNAAKVLVNLTFSQIELAAAATEAGALPAAVSLLQAGQKQALAETDAEVALGLHRQGAWLLSHLTAGQGCQARELLAAQPQALARIKDLLTTSRDTATLIRCCEVVCNLARGDVGPHAELIRAGLVQVLLKLVEVETEAPAPTGAARSEGSSVDLLLPALTALAALAAGGAACARGLLAHAPLLRTLTGALEWSNLISRDHDLSRVMLAAHSLVYVLGRFALRNRIVVPGVRAGVVVDAGMGATPAAATPQAQQVLQESGYVSFAAAMAALGLQQPRYTAAILGTELESGPHSAVASAAYQVNTELLPMMRHDNARMVVNTCARLYQIAVCLRDSPECRSVLSNTSLSLALSDLLRSQHSSVLQAALCLTDALAALPEVVPQLAANGVLDRLCDLLHNTSAQPQEHKAGTADTAGDPLVVLLAERALVTMFLTRGQHQAE” reads “not soluble”; that for “MLTLKNDYLTVKINPLGAELTSVVDNETQLEYMWQADKAYWGRHAPILFPIVGRLQDNQYRLGERTYHMTQHGFARDREFTVIDQTPTQVTLELTADDQSRALFPADFTLTVTFELIDHQLRFSADVFNPATTTLPFSIGAHPGFNVPLGDALADFTDYQVTVSPKKTYQRVPLVGPYSDSQHTEPLDLTQPLGLDHGLFAHDAQVLTLDSETTVMLSTPTNDHGVALTTTAPYLGIWSPYPKQAPFVCLEPWWGLADDVQATGELTTKVAIHHLAAQQHFQAAYQVTYFLEHHHHHH”, “not soluble”. The result for “MGSDKIHHHHHHMLDLINVSYDTQIPNNVGLSQDKKVLKALEKWHPGYINWWNDLIPQNFQESLVYLRTAVSVDPKGWAKFDYVKMPEYRWGVLLAPQVENRTIPCGEHYGQPAWQEVPGEYRNLLKRLIVIQGDTEPASVEQQRLLALTAPSLYDMRNLFQVNVEEGRHLWAMVYLLHKYFGRDGREEADDLLRRQSGSEEAPRMLGAFNEETPDWLSFFMFTYFTDRDGKMQLESLAQSGFDPLSRTCRFMLTEEAHHMFVGETGVGRTIERTCQVMKENGIDDPYDTGRIRDLGVIDLPLIQKKLNLHYTLSLDLFGQEVSTNAANAFNAGIKGRYMENRLTDDHQLQQDTYTVWDFEDGKAVQKQVAALTAINMRLRDDYTKDAAGGVGRWNKIIEKHGVDFQLSLPHEAFHRKIGVFADKHFDPSGQPVSGAEYDAGLPKWLPTHADGDFIQSLMKPCYEPGQYARWIAPPKVGIDNRPGDFEYVKLHMA” reads “not soluble”; that for “MSLNKLCVAALSVNNFCDNREALYGVFDGDRNVEVPYLLQCTMSDILAEELQKTKNEEEYMVNTFIVMQRKLGTAGQKLGGAAVLCHIKHDPVDPGGSFTLTSANVGKCQTVLCRNGKPLPLSRSYIMSCEEELKRIKQHKAIITEDGKVNGVTESTRILGYTFLHPSVVPRPHVQSVLLTPQDEFFILGSKGLWDSLSVEEAVEAVRNVPDALAAAKKLCTLAQSYGCHDSISAVVVQLSVTEDEGHHHHHH”, “not soluble”.

Turning to “MSAKHPVIAVTGSSGAGTTTTSLAFRKIFAQLNLHAAEVEGDSFHRYTRPEMDMAIRKARDAGRHISYFGPEANDFSLLEHTFIEYGQTGKGQSRKYLHTYDEAVPWNQVPGTFTPWQPLPEPTDVLFYEGLHGGVVTPQHDVARHVDLLVGVVPIVNLEWIQKLIRDTSERGHSREAVMDSVVRSMDDYINYITPQFSRTHINFQRVPTVDTSNPFAAKGIPSLDESFVVIHFRNLEGIDFPWLLAMLQGSFISHINTLVVPGGKMGLAMELIMLPLVQRLMEGKKIE”, the “soluble on expression in E. coli” value is listed as “not soluble”. As to “MAHHHHHHMHSAALRRREEAAKSLAELEPEYAQIVADLPALEARKAAAEKEQEALWAELGMKQDESEAGLYESEFSDEATSCIRWCETGGCIGTGPRESHRDKSCSNVIDRDSSGYCECKTNDKKDEPEDDEEDVEPEAEGEGTEVRRGTVTYRFSSGHPRFTCMYVCDHSGEAGVDQQPEKLESFTILGELREASKSLERKKNRLEEVKGAMEAAKKLLSSPTITTEDLLRTLEKEEFTIDFQEYTYAIVMFDTVYQRDMGMTTGGNLLGLWKSFAENTYSVWAKDAHDLTQMIYDNGLKCWNGVVRNVEVHLVCGPENKLMTVEEPSMCNYRMVFETPAMCDD”, the “soluble on expression in E. coli” value is recorded as “soluble”. “MSLRKIIPINNNWYFKADYEEGYEKVDDLRSFENVNLPHTNIELPYNYFDEKMYQIKSCYKYPLHISEKYRDKVIYIHFEGVMAYAQVYLNGLYIGEHKGGYTPFDIRIDEVYDWKKELNMLTVVVDSTERSDIPPKGGQIDYLTYGGIYREVSLGIYDDVFIKNIKVETHGIYDNEKSLNLIVHLENLNHQSGNVKFKVKINDKNGKEVFYKEFNTYLDAVKDVYSFNIENLKDIKLWDVDNPNLYEIKVGMKINNFSDEYDNKFGFREAVFKPDGFYLNGRKLKLRGLNRHQSYPYVGYAMPRRVQEKDAEILKNELHLNIVRTSHYPQSKHFLNKCDELGLLVFEEIPGWQYIGNSEWKKVAEQNLREMITRDWNHPSIILWGVRINESQDDDAFYKNMNKIAHEIDPTRQTGGVRYITNSSFLEDVYTFNDFIHDGINKPLRKQQEVTGLEHNVPYLVTEYNGHMYPTKRFDNEERQMEHCLRHLRIQNASYLDDSISGAIGWCAFDYNTHKDFGSGDRICYHGVMDMFRLPKFASYVYKSQVSPDIEPILEPVTFWARGERSIGGVIPLIIFTNCDYIELQYGNKTKIDNIYPNRDAYKGIPYPPIIIDYDIVKPEMIGAWGMVWEDLTLKGFYKGNKVIERKFSREPIPTYLYVVPDDTILSATQKDATRIVVKILDQYGNLLPFINEVIKIEIEGPAKLQGPNEVALIGGEGHHHHHH”: the “soluble on expression in E. coli” value was “soluble”. As for “MAHHHHHHMSSSSSGQYSGSGGNRGSGFVHLNTPASIQYTAGKTLSLSALRQSKSRVECAVLPESMSVWRDAFQRYSKEEGYSSFAADIEDERTGNGPILPPLVPQRAGPVRRRAGRALVRTDAFFCASSSPAPLGTSASTAHTGADRPPLTDGAAAISSTATAASASSSSRLSDKGTTATSADSVADGSTGPTAKQQQEGIPIVSHHKLLGRQQFVYPDYDGVLSAGVVPQIVVTAEEEAEEAAAKAFYISPLTMTEEELAAFEELQGLWKSRARSHSFLGAQHRKAAKGAVDPSSSADVLEAGGAGLPKVRRCEGVTGGASLSARRGNEIDVPAYAEAETAVEEESKLDKELSEALRMADDLLRFA”, the “soluble on expression in E. coli” value is on record as “not soluble”. In the case of “GMKEDTIEIAGFHAHVYFDAASRDVAARVREGLGARFEVQLGRWFDKPIGPHPKGMYQVAFLPNQFDKVVPWLMLNREGLDILVHPETGDAVSDHAVYSLWLGAALALNIEFLRQLSSTSSN” it was “soluble”.
